Patent US20090291895A1 (published 2009)

B1: mouse MIP-1alpha (ligand)
chain: APYGADTPTACCFSYSRKIPRQFIVDYFETSSLCSQPGVIFLTKRNRQICADSKETWVQEYITDLELNA
B2: purified recombinant 6x-histidine tagged rhesus MIP-1alpha (ligand)
chain: ADTPTSCCFSYISRQIPQNFIADYFETNSQCSKPGVIFLTKRGRQVCADPSKEWVQKYVSDLELSAHHHHHH
notes: also called rhMIP-1α; rhMIP1α
B3: mouse MCP-1 (ligand)
chain: not shown

Legend:
[1] = molecular target: T1, purified recombinant MPV vCCI (monkeypox virus viral CC-chemokine inhibitor, product of MPV ORF-[cha (monkeypox virus, UniProt P0DTM9 17-246)); assay: mobility shift assay
[2] = molecular target: T1, purified recombinant MPV vCCI …; assay: native PAGE mobility shift (1:1 molar ratio); co-immunoprecipitation

| Binder | binding result [1] | binding result [2] |
| --- | --- | --- |
| B1 | binds | – |
| B2 | – | binds |
| B3 | binds | – |
